Results on six molecules are retold here after patent US20240026407A1, “MODIFICATION OF SAPONINS” (GLAXOSMITHKLINE BIOLOGICALS SA, priority 2020, published 2024).

Some results are limits rather than exact numbers.

Common to all, as to type: biochemical, Quillaja saponaria
Experiment [1] can be described thus: Experiment 5-1: screening of additional glucosidases for deglycosylation with purified QS-18 (0.04 mg/ml) at pH 7.5 and 30 deg C. The conditions noted are these: pH 7.5, 30 degrees C, 18 hours, LCMS/MS. Here is the method: The 94 additional genes, together with positive control (DNA encoding SEQ ID No. 262) and negative control, were transformed, expressed, lysed and reacted in the same manner as described above for Experiment 4-1, except the reaction was incubated at 30 degrees C. for 18 hours.
Samples were analysed by LCMS/MS according to the procedure in Experiment 4-1.

A short description of experiment [2]: Experiment 5-2: screening of additional glucosidases for deglycosylation with QS-18 in crude bark extract (80%) at pH 6 and 35 deg C. The conditions noted are these: CBE 80%, pH 6, 35 deg C, 18 hours; UV HPLC. In a few lines:
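Clarified glucosidase lysate (prepared at pH 6) was incubated with pH 6-adjusted crude bark extract at 35 deg C with shaking for 18 hours. Reactions were quenched with MeCN containing 2% AcOH and hexanophenone, then analysed by UV HPLC.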

Experiment [3] in a line: Experiment 5-3: screening of additional glucosidases for deglycosylation with QS-18 in treated bark extract (80%) at pH 6 and 35 deg C. The conditions noted are these: TBE 80% (QS-21 approx. 4 g/L), pH 6, 35 deg C; UV HPLC. The protocol: Experiment 5-1 was repeated, replacing CBE with Treated Bark Extract (TBE) at pH 6. TBE was prepared from CBE by PVPP treatment and concentration, to provide TBE with a QS-21 concentration of approximately 4 g/L. TBE was adjusted to pH 6 by dropwise addition of 2M NaOH with stirring.

B1: 894 (protein, listed as Microbacterium sp.)
chain: MSDSVAQPSVTDLTLEEKASLTSGADFWTTTAIDRAGVPSIMMTDGPHGLRKQADGNDHVGLANSVPATCFPPAVGLSATFDPELAVRVGEALGVESAIENVAVILGPGINIKRSPLCGRNFEYMSEDPIVSGVMGGALVRGIQSRGVGASLKHFAANNQETDRLRVSSDVDPRPLREIYLRGFQIAIEGAQPWTVMCSYNRINGAYASEDPWLLTSVLRDEWGFEGLVVSDWGAVNDRVAGVIAGLDLEMPSSGGATDAQLVAAVRDGSLDEAALDVVARRVLDLVQKAGRRPAIDGHLDIDAHHALAREVAGRAIVLLKNDDRVLPLAAEQKVAVIGAFAETPRFQGAGSSLINPTRLDSALDGFAEYAAEGAVTYAAGFALDGSGDADVLRAEAVAAASASEVAVVFLGIPASAESEGFDREHIDLPADQLALLDAVLVANPRTVVVLSNGGVVALPFADRVPAIIEGWLLGQAGGSATADVLYGAVNPSGRLAETIPVRLEDNPSYGNFPGEHGHVRYGEGLFVGYRWYDERGLDVTFPFGHGLSYTTFAYGDAQASVRSDGDMAVRIAVTNTGERAGRELVQVYTALQGSAVQRAPRELKAFQSVALEAGETREVELIVRRDDLAYWDVRVDRWVVEGGEYEVHVGASSRDIRSVASAEVAGDELVLPASLNSSITELLAHPVLGERMRALVAAAFGPGAESEGALQVLGSFPIGRLAAFPNVPATRDEIERMIAQA
For the molecule B1, in experiment [1], the “Experiment 5-1 % conv” value is recorded as 21.3%. In addition, the “Experiment 5-2 % conv” value in experiment [2] was <0.5%. Also, in experiment [3], the “Experiment 5-3 % conv” value is <0.5%.

B2: 823 (protein, listed as Streptomyces fulvissimus)
chain: MAAASSTSNSKALRREAVDTALAALGLDDKTRLLAGQDLWSLPALPAIGLRSLVMSDGPIGVRGVRWTAADPSVALPSPTALAATWDPELARRAGRLLAQEARRKGVHVLLAPTVNLHRTPLGGRHFEAYSEDPYLTGEIGTGYVRGVQDGGVATTVKHFVANDAETDRFTVNNTVAPRPLRELYLAPFERIVRNAHPWGIMAAYNQVNGSTMTEHRYLQNAVLRGEWGFDGFIVSDWLAARTTVGAITGGLDAAMPGPRTVYGETLADAVRAGEVDEKIVDLAVRNILLLAARVGALESAPPAVPAAALPATVDGDALAREIARRSFVLVRNEVHDGADALPLAPGTTVALSGALARDARVLGGGSALVFPDHVVSPLDGLTAALPEGALTYAVGADPSDELAIAEAGFDLTAVCRDASGAVLATVPLPSGQIQWIGADLPDGVTHDTLDTVEITGTFTPRASGEHTFGTRGTGSFALTVDDRPLFDGTQDRAPGTDPLGAFFNEPVERGRLPLTEGAPVRVSLSHRPGPGTGHPLKGVAFSLVHLAPLRDPDELIAEAVEAARSADTAIVVVGTTERVESEGFDRTDLKLPGHQDALVHAVAAVNPRTVVVVNSGSPVELPWRNEVAAVLLSWFPGQEAGHALADVLRGQEEPGGRLPTTWPVALADVPVSATTPTNGELPYTEGVFIGYRAWEKAGTTPAYAFGHGLGYTTWEYEDVSATPDSVTVRVRNTGSRPGSDTVQIYLAPAPAPDAPERPARWLAGFARVTAAPGGSVEVTVPVEARAYQVWDEEAYGWKTVPGTYEVQAARSLADVRATTTVDITA
In the case of B2, the “Experiment 5-1 % conv” value in experiment [1] is reported as 23.1%. For the same molecule, in experiment [2], the “Experiment 5-2 % conv” value was <0.5%. For the same molecule, the “Experiment 5-3 % conv” value in experiment [3] is on record as <0.5%.

B3: 874 (protein)
chain: MSEQTSSSTYPSVNDLSLEEKASLTSGGDAWHLQPIEERGIPGYMITDGPHGLRKTAGDTGAIDLEHTVPATCFPPAAGMSSTWNPELVEEVGQAMAEECIQEKVAVILGPGVNIKRNPLGGRCFEYWSEDPYLAGHEAVGIVKGVQSKGVGTSLKHFAVNNQETDRLRIDARVSQRALREIYLPAFEHIVKTAQPWTVMCAYNRINGVYAAQNRWLLTDVLRKEWGFKGIVMSDWGADHDRVASLNAGLNLEMPPSFTDDQIVSAARDGRISPKQLDDMAQGMIGLVNKTRQAMSVEDYRFDAQVHDDIARRAAAESMVLLKNDEHILPLSKNARVAVIGEFARTPRYQGGGSSHITPTQLTSLLDALQQRGIEYDFAPGFTLEDGEQEQSLVDEAVNIASKADAVVMCLGLPEYAESEGFDRTSLDIPAKQLELLSKVRESNANVVVLLSNGSVVSLTPWQDQAKAVVETWLLGQSGGGAIADMLFGDVNPSGKLSQTIPLNILDDPSMLNWPGEEGHVDYGEGVFVGYRYYDTYAKEVAYPFGFGLSYSDFSIDNVSVERTGANTACVRATVTNVSQTAGAQTVQIYVAPGRSEVARPVHELKGFAKVFLEAGESKEISIDLDERAFAYWSERFNDWHIEAGTYGIEVATSSRDIVERLDIELEGDGKSLPLNEWSNMSEWRKDPVGGPIVKRMFEEGRDGRIPALPENNLGAELFLDAMPINSMSVLLGKDGKVLTQFLLDEYAKETDGLH
modifications: Bifidobacterium tsurumiense
Consider B3, for which, in experiment [1], the “Experiment 5-1 % conv” value stood at 29.4%. Further, the “Experiment 5-2 % conv” value in experiment [2] is <0.5%. Besides, the “Experiment 5-3 % conv” value in experiment [3] was <0.5%.

B4: 824 (protein, listed as Pestalotiopsis fici)
chain: MMTTDIEAVLKSLTLEEKISLLAGQNFWETVPVPGKVPHIKTSDGPNGARGADFTGGTRAACFPAASNVAATFDLDIANRIGQALAEETQSKGARCLLAPTTCIHRHPLGGRNFESFSEDPLLSGKLASQVIQGVQSKGVAATIKHFAANEQETERMSVDETISERALREIYLRPFEIAVKEAKPWAVMTAYNCVNGEHCDSNAFNFKVLREEWGWKGLVMSDWGGTNSTAEALNAGLDLEMPGPTNRRKIPDVLAAIKEGKTTERAIDDRARAVLEFIDRLKAFEDPTIPPEQAINKPEHQALIREAGAKGCVLLKNDNGVLPLSKDKVKGKKVAVFGLAKTPLAHGGGSASVNAHYKIAPWDALQEAVGDSAELVYSQGAHTQRILLPIGEDKSAGSIVGLDGKPGFTLQVFDNATQAIEETTHGHPSSSISPLGSKATLYKILEFVGDFTPTESGSHYLGCTGLGLTQVYVNDKLVYDQQKASPDAMGFLFGAISEDEFTYPFTAGNAYRIRVRSLPPIDVPGLEILNGRSGVRLGLQLASEHDADLQGEAVALAKDADYALVFTGHDPQWETEGQDQESFNLPRKGTQDALISAVAKVNPNTVVINSTGVAIALPWLEQVSSLVHAGFPGQECGNSIVDVITGAVNPEGRLPMSFPKRLEDAPAYGNFPGEYVNGQLKVEYKEGVFVGYRHYDRIGRDKVNFAFGHGLSYTTFATDSLRVSRKSETEFSASVNVTNTGKTQGGTLVQLYAGNATTSPEHPIKGLVAFKKIRLEPGQTQTVDLAVAARDLGFFDESRGQWVVPAGQYDFSLGESALDIIQTVKVAVEKELTSAP
On to B4, for which the “Experiment 5-1 % conv” value in experiment [1] is given as 23.5%. For the same molecule, the “Experiment 5-2 % conv” value in experiment [2] was <0.5%. The “Experiment 5-3 % conv” value in experiment [3] is <0.5%.

B5: 810 (protein, listed as Cutibacterium avidum)
chain: MTPAEITDLISQLTLEEKASLCSGGDSWHLQTVEKLGIPGPMVTDGPHGLRKVADGSMAGIYDSVPATCFPTAAGLASTWDPELVHDIGVALGEETRAESVSVLLGPGINMKRSPLCGRNFEYFSEDPVLAGTLATELVRGIQSQGVGTSLKHFAANNQETDRLRVNAEIDERTLREIYLPAFEMVVKQADPWTVMCSYNAINGVYSSQNRWLLTELLHEEWGYKGLVISDWGAVVNRVEGLRAGLDLEMPGDAPRNDARIVEAVRSGDLDEEILDTAVARILSLIARASAAMADPGSYDIEAHHQLARRAAAASVVLLKNDGDVLPLIDPDDVVVIGEFARTPRYQGAGSSKVNPTRVDTALDSLRQTWDDVPFAPGFTLTDHPDPQLADEAVSLSRGKTAVLFLGLPAVAESEGYDRTNTDLPTDQIDLLARVRKVASHTIVVLSNGSSVGTAEWDDQADAIVECWLGGQASGSGVIDVLTGKVNPSGHLAETITRKLSDIPAQLNFPGEFQHVTYGEGRYIGYRGLDATEREVAYPFGHGLSYTTFAYCDLDLLVRPVSDETAQDETVLTVSFTVSNTGDRAGATVPQVYLGFPDATVDRCVRELKAFLRVELDPGESRSITIDLTRRDLSYWDILLHSWTVEPGTVRVEVGISSRDLPLTGEVILDAPTVRHPLRRDSTVAEWMDADEEFAAKVRRATEQTGIDLDSDPTTAAFILAMPAYKMLQMAPIMTPEELDKMLGD
On to B5, for which the “Experiment 5-1 % conv” value in experiment [1] worked out at 22.7%. In addition, the “Experiment 5-2 % conv” value in experiment [2] is listed as <0.5%. In experiment [3], the “Experiment 5-3 % conv” value is <0.5%.

B6: 825 (protein, listed as Bifidobacterium bohemicum)
chain: MSEQNSERKATLPQAKDLSVEEQSALTSGTNPWSIGRVEGKGLPNYTITDGPHGLRKARDLDGMDVDAAVPATCFPPAAGMSSSWNPELIKKTGEAMGEECVQEQVAVILGPGVNIKRNPLGGRCFEFWSEDPYLAGHEAIGEVEGIQSKGIGTSLKHFAANNQETDRLRVNARISERAMREIYLPAFEHIIKNAQPWTVMCSYNRINGEYASQNSWLLTDVLRKEWGFKGIVMSDWGAVHDRAAALNAGLNLEMPPTHTDDKIVQAVRDGQVKPEQLEAMSQGMIDLVAKTQPAMEKGAAGYRYDVDEHDEIAREAAREAMVLLKNEDGLLPVKPGTKLAVIGEFARTPRYQGAGSSLINPNKLTSFLDALKDRGVEAEFAPGFTLDGDEQSQELTDEAVNAAESADTVLLFIGLPAEAESEGFDRTTLDIPAKQIEVLKAVSAVNKNVVVILSNGSVVSMPWADQAKSILECWLLGQAGGAATADVVFGDVNPSGKLAQTIVNNLDDDPSMLNWPGEEGHVDYGEGVFVGYRYYDSFHKAVTYPFGYGLSYTTFDISEVNAQKSGPQSVHVTAMVTNTGSMAGAEVVQVYVAPPACRVDRPVHELKAFKKVFLEPGQSQEVSFDLDSRAFAYWSERFEDWKVEGGSYGIEVGDSSRSIAQTVPVQLDDDGKRMKLTKWSTYGEWREDPDGNKILDKVISELEAKYGHAIIPDSQLIIMFLKSAPLGGMSMVLGANEAQDICERALAEYAKIGR
For the molecule B6, the “Experiment 5-1 % conv” value in experiment [1] came out at 24.5%. In experiment [2], the “Experiment 5-2 % conv” value was <0.5%. The “Experiment 5-3 % conv” value in experiment [3] is <0.5%.
